Experimental data from paper PMC10786891, “Massively parallel profiling of RNA-targeting CRISPR-Cas13d”.
Where a chain is given by its changes, count along the chain named. Names may count otherwise.

T1: EsCas13d, nuclease-dead (Eubacterium siraeum, UniProt B0MS50, R295A;H300A;R849A;H854A)
T1 sequence: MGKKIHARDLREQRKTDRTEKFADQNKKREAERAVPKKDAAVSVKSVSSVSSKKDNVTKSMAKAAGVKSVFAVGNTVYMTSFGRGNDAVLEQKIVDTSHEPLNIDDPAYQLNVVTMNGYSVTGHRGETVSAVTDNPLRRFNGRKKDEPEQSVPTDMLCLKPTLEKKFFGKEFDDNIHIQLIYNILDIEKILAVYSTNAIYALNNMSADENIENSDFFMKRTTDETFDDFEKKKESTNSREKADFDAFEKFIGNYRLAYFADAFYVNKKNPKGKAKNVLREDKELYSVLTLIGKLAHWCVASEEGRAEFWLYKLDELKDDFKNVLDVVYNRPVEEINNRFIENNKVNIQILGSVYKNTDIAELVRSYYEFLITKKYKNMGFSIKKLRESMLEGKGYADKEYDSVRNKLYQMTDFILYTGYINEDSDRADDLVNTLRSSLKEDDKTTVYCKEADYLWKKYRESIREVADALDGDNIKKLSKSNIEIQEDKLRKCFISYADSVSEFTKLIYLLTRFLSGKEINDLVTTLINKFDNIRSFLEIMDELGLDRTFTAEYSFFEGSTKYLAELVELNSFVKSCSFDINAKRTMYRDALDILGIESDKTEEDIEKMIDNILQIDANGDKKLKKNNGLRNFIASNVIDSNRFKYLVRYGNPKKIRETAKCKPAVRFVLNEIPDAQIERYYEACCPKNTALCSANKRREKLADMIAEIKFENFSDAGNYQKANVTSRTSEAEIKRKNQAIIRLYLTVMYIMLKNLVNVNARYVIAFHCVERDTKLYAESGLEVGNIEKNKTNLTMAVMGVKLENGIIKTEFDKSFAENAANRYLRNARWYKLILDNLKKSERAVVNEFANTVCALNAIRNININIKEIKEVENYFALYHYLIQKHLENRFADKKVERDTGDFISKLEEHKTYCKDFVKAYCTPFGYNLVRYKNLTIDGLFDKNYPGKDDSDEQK

B1: target 2 MT 5'PFS AGG 3'PFS CGA (mixed)
RNA 1: CACCCGUGCAAAAUUGCAGGGGUCUAAAACCUUCUCCAAAUUGUUUCAUCCU
RNA 2: GGGAAUGGAUCCACAUCUACGAAUUCAGGAGGAUGAAACAAUUUGGAGAAGCGAAGAUCGGAAGAGCACACGU
B2: target 2 MT 5'PFS GUA 3'PFS GAA (mixed)
RNA 1: B1 RNA 1
RNA 2: B1 RNA 2 with A27G, G28U, G29A, C52G, G53A
B3: target 2 MT 5'PFS UGA 3'PFS UUA (mixed)
RNA 1: B1 RNA 1
RNA 2: B1 RNA 2 with A27U, G29A, C52U, G53U
B4: target 2 MT 5'PFS UAC 3'PFS UUU (mixed)
RNA 1: B1 RNA 1
RNA 2: B1 RNA 2 with A27U, G28A, G29C, C52U, G53U, A54U
B5: target 2 MT 5'PFS GCU 3'PFS CCA (mixed)
RNA 1: B1 RNA 1
RNA 2: B1 RNA 2 with A27G, G28C, G29U, G53C
B6: target 2 MT 5'PFS GGC 3'PFS AAU (mixed)
RNA 1: B1 RNA 1
RNA 2: B1 RNA 2 with A27G, G29C, C52A, G53A, A54U
B7: target 2 MT 5'PFS GUA 3'PFS UAA (mixed)
RNA 1: B1 RNA 1
RNA 2: B1 RNA 2 with A27G, G28U, G29A, C52U, G53A
B8: target 2 MT 5'PFS GUA 3'PFS UAC (mixed)
RNA 1: B1 RNA 1
RNA 2: B1 RNA 2 with A27G, G28U, G29A, C52U, G53A, A54C
B9: target 2 MT 5'PFS GUA 3'PFS UAU (mixed)
RNA 1: B1 RNA 1
RNA 2: B1 RNA 2 with A27G, G28U, G29A, C52U, G53A, A54U
B10: target 2 MT 5'PFS GUA 3'PFS GAC (mixed)
RNA 1: B1 RNA 1
RNA 2: B1 RNA 2 with A27G, G28U, G29A, C52G, G53A, A54C
B11: target 2 MT 5'PFS UUU 3'PFS CAC (mixed)
RNA 1: B1 RNA 1
RNA 2: B1 RNA 2 with A27U, G28U, G29U, G53A, A54C
B12: target 2 MT 5'PFS ACU 3'PFS UCA (mixed)
RNA 1: B1 RNA 1
RNA 2: B1 RNA 2 with G28C, G29U, C52U, G53C
B13: target 2 MT 5'PFS UAC 3'PFS UUA (mixed)
RNA 1: B1 RNA 1
RNA 2: B1 RNA 2 with A27U, G28A, G29C, C52U, G53U
B14: target 2 MT 5'PFS UGA 3'PFS UUC (mixed)
RNA 1: B1 RNA 1
RNA 2: B1 RNA 2 with A27U, G29A, C52U, G53U, A54C
B15: target 2 MT 5'PFS CUU 3'PFS AUC (mixed)
RNA 1: B1 RNA 1
RNA 2: B1 RNA 2 with A27C, G28U, G29U, C52A, G53U, A54C
B16: target 2 MT 5'PFS ACU 3'PFS UCG (mixed)
RNA 1: B1 RNA 1
RNA 2: B1 RNA 2 with G28C, G29U, C52U, G53C, A54G
B17: target 2 MT 5'PFS AAG 3'PFS UAA (mixed)
RNA 1: B1 RNA 1
RNA 2: B1 RNA 2 with G28A, C52U, G53A
B18: target 2 MT 5'PFS ACU 3'PFS UCC (mixed)
RNA 1: B1 RNA 1
RNA 2: B1 RNA 2 with G28C, G29U, C52U, G53C, A54C
B19: target 2 MT 5'PFS UAC 3'PFS UUG (mixed)
RNA 1: B1 RNA 1
RNA 2: B1 RNA 2 with A27U, G28A, G29C, C52U, G53U, A54G
B20: target 2 MT 5'PFS GGC 3'PFS AAG (mixed)
RNA 1: B1 RNA 1
RNA 2: B1 RNA 2 with A27G, G29C, C52A, G53A, A54G
B21: target 2 MT 5'PFS GCU 3'PFS AGG (mixed)
RNA 1: B1 RNA 1
RNA 2: B1 RNA 2 with A27G, G28C, G29U, C52A, A54G
B22: target 2 MT 5'PFS GGC 3'PFS AAC (mixed)
RNA 1: B1 RNA 1
RNA 2: B1 RNA 2 with A27G, G29C, C52A, G53A, A54C
B23: target 2 MT 5'PFS GGC 3'PFS AAA (mixed)
RNA 1: B1 RNA 1
RNA 2: B1 RNA 2 with A27G, G29C, C52A, G53A
B24: target 2 MT 5'PFS GCU 3'PFS AGA (mixed)
RNA 1: B1 RNA 1
RNA 2: B1 RNA 2 with A27G, G28C, G29U, C52A
B25: target 2 MT 5'PFS GUA 3'PFS UAG (mixed)
RNA 1: B1 RNA 1
RNA 2: B1 RNA 2 with A27G, G28U, G29A, C52U, G53A, A54G
B26: target 2 MT 5'PFS CAA 3'PFS AGC (mixed)
RNA 1: B1 RNA 1
RNA 2: B1 RNA 2 with A27C, G28A, G29A, C52A, A54C
B27: target 2 MT 5'PFS UUU 3'PFS CAU (mixed)
RNA 1: B1 RNA 1
RNA 2: B1 RNA 2 with A27U, G28U, G29U, G53A, A54U
B28: target 2 MT 5'PFS AGG 3'PFS AUU (mixed)
RNA 1: B1 RNA 1
RNA 2: B1 RNA 2 with C52A, G53U, A54U
B29: target 2 MT 5'PFS AAG 3'PFS UAU (mixed)
RNA 1: B1 RNA 1
RNA 2: B1 RNA 2 with G28A, C52U, G53A, A54U
B30: target 2 MT 5'PFS ACU 3'PFS UCU (mixed)
RNA 1: B1 RNA 1
RNA 2: B1 RNA 2 with G28C, G29U, C52U, G53C, A54U
B31: target 1 insA 3' of 8,insU 3' of 2 (mixed)
RNA 1: CACCCGUGCAAAAAUGCAGGGGUCUAAAACUGAGCGGAUAACCUCUCUAUGG
RNA 2: GGGAAUGGAUCCACAUCUACGAAUUCGUACCAUAGAGAGGUUAUACCGCUCUACCGAGAUCGGAAGAGCACACGU
B32: target 1 insA 3' of 17 (mixed)
RNA 1: B31 RNA 1
RNA 2: GGGAAUGGAUCCACAUCUACGAAUUCGUACCAUAGAAGAGGUUAUCCGCUCACCGAGAUCGGAAGAGCACACGU
B33: target 1 A1G,A14G (mixed)
RNA 1: B31 RNA 1
RNA 2: GGGAAUGGAUCCACAUCUACGAAUUCGUACCAUAGAGGGGUUAUCCGCUCGCCGAGAUCGGAAGAGCACACGU

Biological target: T1, EsCas13d, nuclease-dead
Assay: crRNA (strand 1, pre-loaded); Mg2+; 40 mM Tris-HCl pH 7.5, 150 mM NaCl, 6 mM MgCl2, 1 mM DTT, 0.1% Tween-20, 0.2 mg/ml BSA; 25 C; 10 min per concentration, then washed
Settings: tags: His6-TwinStrep-SUMO cleaved; N-terminal SNAP kept (SNAP-Surface 488); label: 3' end held by stalled T7 RNA polymerase

In order of rising Kd:
1. B29  3.6 ± 0.6 nM
2. B17  3.7 ± 0.7 nM
3. B1  4.5 ± 0.5 nM
4. B28  4.8 ± 0.8 nM
5. B15  5.1 ± 0.9 nM
6. B7  5.5 ± 0.6 nM
7. B2  6.7 ± 2.4 nM
8. B16  6.7 ± 1 nM
9. B27  6.8 ± 0.8 nM
10. B12  7.3 ± 1.7 nM
11. B24  7.3 ± 2.1 nM
12. B11  7.5 ± 1 nM
13. B26  7.6 ± 2.2 nM
14. B8  7.7 ± 0.7 nM
15. B9  7.8 ± 0.7 nM
16. B10  7.9 ± 1.4 nM
17. B21  7.9 ± 0.8 nM
18. B19  8 ± 1.4 nM
19. B30  8.4 ± 0.9 nM
20. B6  8.5 ± 0.9 nM
21. B23  8.9 ± 1.5 nM
22. B3  10.7 ± 1.9 nM
23. B25  11 ± 1.8 nM
24. B13  11.1 ± 2.3 nM
25. B22  11.7 ± 1.4 nM
26. B32  11.8 ± 1.3 nM
27. B4  11.9 ± 1.9 nM
28. B20  13.1 ± 2 nM
29. B18  14.3 ± 3.5 nM
30. B33  14.3 ± 0.8 nM
31. B31  22.5 ± 1.4 nM
32. B5  25 ± 12 nM
33. B14  26 ± 7 nM
